{
  "source": "paper PMC12182672",
  "target": "host plasminogen (Plg), porcine (pig)",
  "experiment": "ELISA; microtiter plates coated with 0.8 ug/well Plg in 50 mM carbonate-bicarbonate buffer pH 9.8; His-tagged proteins added at 1 ug/mL; detected with His-tag monoclonal antibody and HRP anti-mouse; OD450",
  "data": [
    {"substance": "truncated rMhp390(27-247) (domain or fragment)", "values": [
      {"measurement": "fold binding activity (OD450) over the negative control rNOD1", "result": 2.56, "unit": "fold"}
    ]},
    {"substance": "truncated rMhp390(425-604) (domain or fragment)", "values": [
      {"measurement": "fold binding activity (OD450) over the negative control rNOD1", "result": 2.68, "unit": "fold"}
    ]}
  ]
}
